{
  "source": "patent US20050112168A1",
  "about": "(UNIVERSITY OF ROCHESTER, published 2005)",
  "binders": {"B1": {"name": "M13 phage clone displaying SEQ ID NO:22 (peptide)", "peptide": "TPSLPPTMFRLT", "notes": "also called ID No. 22; not shown: M13 phage coat protein carrying the random 12-mer; not specified"}, "B2": {"name": "GAL-4-BD-TRAP fusion protein (other)", "chain": "MKLLSSIEQACDICRLKKLKCSKEKPKCAKCLKNNWECRYSPKTKRSPLTRAHLTEVESRLERLEQLFLLIFPREDLDMILKMDSLQDIKALLTGLFVQDNVNKDAVTDRLASVETDMPLTLRQHRISATSSSEESSNKGQRQLTVSATPALRFVAVGDWGGVPNAPFHTAREMANAKEIARTVQILGADFILSLGDNFYFTGVQDINDKRFQETFEDVFSDRSLRKVPWYVLAGNHDHLGNVSAQIAYSKISKRWNFPSPFYRLHFKIPQTNVSVAIFMLDTVTLCGNSDDFLSQQPERPRDVKLARTQLSWLKKQLAAAREDYVLVAGHYPVWSIAEHGPTHCLVKQLRPLLATYGVTAYLCGHDHNLQYLQDENGVGYVLSGAGNFMDPSKRHQRKVPNGYLRFHYGTEDSLGGFAYVEISSKEMTVTYIEASGKSLFKTRLPRRARP", "notes": "Expressed inside transfected cells"}, "B3": {"name": "Clone 5 phage (M13 phage displaying the 12-mer TPLSYLKGLVTV) (peptide)", "peptide": "TPLSYLKGLVTV", "modifications": "also: displayed on M13 phage coat protein (protein and linker not given here)", "notes": "also called GPC4 phage (Clone 5); ID No. 23; not shown: M13 phage coat protein carrying the random 12-mer"}, "B4": {"name": "GST-TRAP fusion protein (other)", "chain": "ATPALRFVAVGDWGGVPNAPFHTAREMANAKEIARTVQILGADFILSLGDNFYFTGVQDINDKRFQETFEDVFSDRSLRKVPWYVLAGNHDHLGNVSAQIAYSKISKRWNFPSPFYRLHFKIPQTNVSVAIFMLDTVTLCGNSDDFLSQQPERPRDVKLARTQLSWLKKQLAAAREDYVLVAGHYPVWSIAEHGPTHCLVKQLRPLLATYGVTAYLCGHDHNLQYLQDENGVGYVLSGAGNFMDPSKRHQRKVPNGYLRFHYGTEDSLGGFAYVEISSKEMTVTYIEASGKSLFKTRLPRRARP", "notes": "also called 'GST' tagged TRAP; recombinant GST-TRAP; not shown: glutathione S-transferase tag (Amersham Pharmacia GST system)"}, "B5": {"name": "M13 phage clone displaying SEQ ID NO:21 (peptide)", "peptide": "SQWHPRSASYPM", "notes": "also called ID No. 21; not shown: M13 phage coat protein carrying the random 12-mer; not specified"}},
  "key": {"[1]": {"molecular_target": "T1, purified type V tartrate resistant acid phosphatase (TRAP), also known as uteroferrin (UniProt P09889 22-340, limits assumed)", "T1 construct": "Purified protein used as immobilised bait, in ELISA, Scatchard, Far-Western and GST pull-down; also called type V TRAP; purified TRAP", "T1 sequence (looked up)": "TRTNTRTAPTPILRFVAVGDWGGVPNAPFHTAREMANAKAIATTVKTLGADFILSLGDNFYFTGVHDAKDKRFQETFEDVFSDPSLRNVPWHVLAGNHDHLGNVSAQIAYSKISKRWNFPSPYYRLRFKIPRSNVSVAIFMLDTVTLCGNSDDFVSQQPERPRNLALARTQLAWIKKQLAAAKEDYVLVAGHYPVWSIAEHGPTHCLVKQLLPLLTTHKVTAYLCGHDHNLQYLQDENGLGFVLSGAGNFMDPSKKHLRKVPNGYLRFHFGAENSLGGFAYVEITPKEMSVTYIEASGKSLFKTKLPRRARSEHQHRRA", "assay": "M13 random 12-mer phage display, three rounds of bio-panning on immobilised TRAP", "excerpt": "After three rounds of bio-panning, elution and amplification 44 phage clones were selected at random and sequenced."}, "[2]": {"molecular_target": "T1, purified type V tartrate resistant acid …", "assay": "modified phage ELISA on immobilised TRAP, antibody to the phage coat", "excerpt": "The binding was compared to wild type phage containing no expressed oligopeptides."}, "[3]": {"molecular_target": "T2, VP-16-AD-GPC412 (VP-16-AD fused to GPC4 deficient in the 12 amino acids of Clone 5) (human, UniProt O75487 19-556)", "T2 construct": "also called 12 amino acid deficient version of GPC4", "T2 sequence": "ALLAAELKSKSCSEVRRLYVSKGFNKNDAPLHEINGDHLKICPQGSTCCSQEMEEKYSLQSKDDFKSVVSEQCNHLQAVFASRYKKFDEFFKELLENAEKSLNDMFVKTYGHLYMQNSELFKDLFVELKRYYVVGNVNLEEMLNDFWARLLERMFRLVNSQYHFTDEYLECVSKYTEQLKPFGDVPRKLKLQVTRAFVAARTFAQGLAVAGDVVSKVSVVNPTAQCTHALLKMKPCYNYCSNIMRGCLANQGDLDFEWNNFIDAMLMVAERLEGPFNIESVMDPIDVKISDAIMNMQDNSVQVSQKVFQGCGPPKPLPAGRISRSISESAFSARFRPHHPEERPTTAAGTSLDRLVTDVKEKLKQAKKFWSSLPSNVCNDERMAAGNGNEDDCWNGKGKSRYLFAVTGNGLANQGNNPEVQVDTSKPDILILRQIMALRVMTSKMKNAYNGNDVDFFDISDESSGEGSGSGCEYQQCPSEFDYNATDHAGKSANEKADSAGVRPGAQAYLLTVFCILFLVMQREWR", "assay": "mammalian two-hybrid luciferase assay"}, "[4]": {"molecular_target": "T1, purified type V tartrate resistant acid …", "assay": "Scatchard-type analysis, immobilised TRAP and increasing phage titer, bound phage counted by plaque assay", "description": "After a one hour room temperature incubation, each well was washed with PBS with 0.5% [v/v] Tween 20 four times. The bound phage where then amplified directly in the wells by the addition of 100 ul of log-phase ER2537 (M13 bacteria host). The number of phage in each well was then determined with a standard plaque assay. […] The bound and free fraction of phage were then determined."}, "[5]": {"molecular_target": "T3, bovine serum albumin (bovine, UniProt P02769 25-607)", "T3 construct": "Control; also called BSA", "T3 sequence (P02769 25-607 limits assumed)": "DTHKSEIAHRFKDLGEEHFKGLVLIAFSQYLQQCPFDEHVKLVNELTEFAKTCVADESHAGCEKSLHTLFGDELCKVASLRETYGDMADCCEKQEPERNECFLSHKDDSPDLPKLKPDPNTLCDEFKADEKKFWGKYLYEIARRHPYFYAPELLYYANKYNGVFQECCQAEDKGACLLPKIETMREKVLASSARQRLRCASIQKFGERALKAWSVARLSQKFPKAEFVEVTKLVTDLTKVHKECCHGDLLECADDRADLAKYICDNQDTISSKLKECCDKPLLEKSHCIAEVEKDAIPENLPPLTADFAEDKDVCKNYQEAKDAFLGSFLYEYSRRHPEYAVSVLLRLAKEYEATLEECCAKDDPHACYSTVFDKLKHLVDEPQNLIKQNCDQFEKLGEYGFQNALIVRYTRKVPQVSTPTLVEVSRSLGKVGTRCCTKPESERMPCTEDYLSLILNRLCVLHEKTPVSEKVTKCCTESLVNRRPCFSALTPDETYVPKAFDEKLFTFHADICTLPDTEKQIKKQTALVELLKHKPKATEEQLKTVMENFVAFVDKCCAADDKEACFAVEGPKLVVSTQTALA", "assay": "Far-Western, proteins on membrane probed with Clone 5 phage", "description": "(§1) They were then transferred to PVDF membranes (NEN) and incubated with 10¹⁰ phage particles from selected clones at 4° C. for overnight. The membrane was washed in PBS with 0.5% [v/v] […] An anti-M13 phage peroxidase-conjugated antibody at a dilution of 1:15000 was added and gently swirled at room temperature for an hour. […] Detection of the phage/antibody complex was accomplished using ECL-plus (Amersham) with the membrane being exposed to Kodak Biomax MR film for 30 seconds."}, "[6]": {"molecular_target": "T4, RNase A (UniProt P61823 27-150)", "T4 construct": "Control", "T4 sequence (looked up)": "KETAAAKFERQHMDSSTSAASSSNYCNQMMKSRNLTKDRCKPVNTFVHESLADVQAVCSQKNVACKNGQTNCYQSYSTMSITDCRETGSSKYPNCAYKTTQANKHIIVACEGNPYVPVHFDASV", "assay": "Far-Western, proteins on membrane probed with Clone 5 phage", "description": "as §1"}, "[7]": {"molecular_target": "T5, Smad 2 (UniProt Q15796 2-467, limits assumed)", "T5 construct": "Detected by a bought antibody in the pull-down", "T5 sequence (Q15796 2-467 limits assumed)": "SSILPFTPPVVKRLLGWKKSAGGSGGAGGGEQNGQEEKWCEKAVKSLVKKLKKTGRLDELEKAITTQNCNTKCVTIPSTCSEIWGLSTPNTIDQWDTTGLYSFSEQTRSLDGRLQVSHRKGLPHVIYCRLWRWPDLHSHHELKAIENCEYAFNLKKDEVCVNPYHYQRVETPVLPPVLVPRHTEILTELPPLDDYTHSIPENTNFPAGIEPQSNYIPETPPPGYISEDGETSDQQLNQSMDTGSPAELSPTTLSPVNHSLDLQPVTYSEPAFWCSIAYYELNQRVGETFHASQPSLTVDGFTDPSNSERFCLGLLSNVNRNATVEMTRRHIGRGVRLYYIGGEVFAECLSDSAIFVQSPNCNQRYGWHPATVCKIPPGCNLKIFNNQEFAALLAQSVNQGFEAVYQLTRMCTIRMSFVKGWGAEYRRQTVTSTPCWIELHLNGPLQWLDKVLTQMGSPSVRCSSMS", "assay": "GST-TRAP pull-down from lysate of cells without HIS-TRIP, Western", "description": "(§2) The GST fusion proteins were pulled down by glutathione coated beads (Amersham) in 4° C. for 1 h then washed three times with NETN buffer (20 mM Tris/pH 8.0, 100 mM NaCl, 6 mM MgCl₂, 1 mM EDTA, 0.5% NP-40, 1 mM DTT, 8% glycerol, and 1 mM PMSF). The purified GST fusion proteins and beads were suspended in 100 μl NETN buffer. […] After incubating for 1 h at 4° C. with agitation, the glutathione-coated beads were washed with NETN buffer four times then the protein complexes were loaded in SDS-PAGE and visualized by using the ECL-plus method.\n(§3) Detection of HIS-TRIP was performed with anti-HIS antibodies and detection of the TGFβRII and Smad 2 were performed with a commercially available antibodies. For these studies, all cells were transfected with the TGFβRII. […] The cells were lysed and the lysate incubated with glutathione beads. The beads were extensively washed and the proteins interacting with the beads were analyzed with Western analysis."}, "[8]": {"molecular_target": "T6, type II TGFβ receptor (UniProt P37173 23-567, limits assumed)", "T6 construct": "From lysate of transfected cells; also called TGFβRII; TGFβ type II receptor", "T6 sequence (P37173 23-567 limits assumed)": "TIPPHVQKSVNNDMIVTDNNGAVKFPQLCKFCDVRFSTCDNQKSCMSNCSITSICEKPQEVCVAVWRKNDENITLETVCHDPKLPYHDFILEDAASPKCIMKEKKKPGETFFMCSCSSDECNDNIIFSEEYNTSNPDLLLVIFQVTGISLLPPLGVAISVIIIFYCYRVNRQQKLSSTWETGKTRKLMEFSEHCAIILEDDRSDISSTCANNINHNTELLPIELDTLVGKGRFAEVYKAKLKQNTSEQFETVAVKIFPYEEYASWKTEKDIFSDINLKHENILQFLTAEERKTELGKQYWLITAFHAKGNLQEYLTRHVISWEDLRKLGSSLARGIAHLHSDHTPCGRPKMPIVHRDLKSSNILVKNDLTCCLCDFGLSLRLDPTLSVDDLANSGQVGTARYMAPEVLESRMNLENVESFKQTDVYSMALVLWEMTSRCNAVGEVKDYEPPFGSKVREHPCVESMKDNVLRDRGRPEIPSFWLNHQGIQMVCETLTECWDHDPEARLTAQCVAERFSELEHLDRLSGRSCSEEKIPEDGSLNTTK", "assay": "GST-TRAP pull-down from lysate of cells without HIS-TRIP, Western", "description": "as §2, §3"}},
  "note": "Ends that are not written are not given here.",
  "data": [
    {"binder": "B1", "values": [
      {"measurement": "Fre (frequency among 44 sequenced clones after bio-panning with TRAP)", "setting": "[1]", "value": "4 of 44 clones"},
      {"measurement": "fold increase in affinity for TRAP over wild type phage", "setting": "[2]", "value": 40, "unit": "fold"}
    ]},
    {"binder": "B2", "values": [
      {"measurement": "binding result", "setting": "[3]", "value": "no binding"}
    ]},
    {"binder": "B3", "values": [
      {"measurement": "Kd", "setting": "[4]", "value": 0.11, "unit": "nM"},
      {"measurement": "binding result", "setting": "[5]", "value": "no binding (tested: 5 ug loaded)"},
      {"measurement": "binding result", "setting": "[6]", "value": "no binding (tested: 5 ug loaded)"},
      {"measurement": "Fre (frequency among 44 sequenced clones after bio-panning with TRAP)", "setting": "[1]", "value": "15 of 44 clones"}
    ]},
    {"binder": "B4", "values": [
      {"measurement": "binding result", "setting": "[7]", "value": "no binding"},
      {"measurement": "binding result", "setting": "[8]", "value": "no binding"}
    ]},
    {"binder": "B5", "values": [
      {"measurement": "Fre (frequency among 44 sequenced clones after bio-panning with TRAP)", "setting": "[1]", "value": "4 of 44 clones"},
      {"measurement": "fold increase in affinity for TRAP over wild type phage", "setting": "[2]", "value": 40, "unit": "fold"}
    ]}
  ]
}
